In US20090202547A1 (FIBRON, published 2009):
One block for each binder: values may come before it.

Tests used:
FR1exFc [1] = target: T1, FR1exFc (UniProt P11362 22-376, limits assumed); assay: ELISA, FGFR/Fc captured on anti-human Fc coated plate, detection with anti-human Fab-HRP
T1 construct: extracellular domain; also called FGFR1/Fc; FR1/Fc; not shown: Fc part; the construct of FR1exFc is not described
T1 sequence (looked up): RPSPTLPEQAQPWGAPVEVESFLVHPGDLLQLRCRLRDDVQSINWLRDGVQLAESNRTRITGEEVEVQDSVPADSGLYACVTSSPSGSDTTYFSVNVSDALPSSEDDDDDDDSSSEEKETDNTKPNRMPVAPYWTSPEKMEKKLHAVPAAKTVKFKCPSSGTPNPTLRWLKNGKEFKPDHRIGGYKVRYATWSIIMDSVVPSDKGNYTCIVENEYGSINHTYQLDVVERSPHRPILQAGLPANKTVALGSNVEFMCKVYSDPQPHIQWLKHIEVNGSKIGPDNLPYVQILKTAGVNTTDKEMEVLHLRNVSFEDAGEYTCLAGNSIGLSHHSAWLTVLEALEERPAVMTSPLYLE

[2] = target: T2, FGFR3 (wild type) on cells (human, UniProt P22607 23-806); assay: cell-based or functional assay
T2 sequence (P22607 23-806 limits assumed): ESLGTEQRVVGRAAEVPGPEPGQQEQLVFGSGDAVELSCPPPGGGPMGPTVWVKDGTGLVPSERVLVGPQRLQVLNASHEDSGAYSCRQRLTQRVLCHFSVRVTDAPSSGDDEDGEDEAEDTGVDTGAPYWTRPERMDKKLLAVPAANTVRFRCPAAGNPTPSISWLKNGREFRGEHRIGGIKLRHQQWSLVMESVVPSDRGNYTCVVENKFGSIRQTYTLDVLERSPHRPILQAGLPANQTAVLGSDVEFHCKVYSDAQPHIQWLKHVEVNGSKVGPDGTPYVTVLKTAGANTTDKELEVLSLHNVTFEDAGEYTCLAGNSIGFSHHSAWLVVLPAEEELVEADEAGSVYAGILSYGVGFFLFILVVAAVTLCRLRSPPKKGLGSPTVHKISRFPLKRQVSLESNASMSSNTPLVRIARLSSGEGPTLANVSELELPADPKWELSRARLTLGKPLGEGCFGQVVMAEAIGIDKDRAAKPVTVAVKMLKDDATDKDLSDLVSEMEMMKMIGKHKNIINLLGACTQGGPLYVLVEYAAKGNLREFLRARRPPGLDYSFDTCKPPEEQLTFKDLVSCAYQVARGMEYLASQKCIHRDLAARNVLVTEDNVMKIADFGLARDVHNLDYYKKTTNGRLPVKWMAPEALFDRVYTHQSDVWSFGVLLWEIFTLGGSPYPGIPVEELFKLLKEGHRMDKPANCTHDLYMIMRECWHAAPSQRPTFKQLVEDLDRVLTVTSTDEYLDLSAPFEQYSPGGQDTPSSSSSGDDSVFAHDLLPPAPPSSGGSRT

FR3exFc [3] = target: T3, FR3exFc (human); assay: BIAcore, Fab-dHLX-MH miniantibody
T3 construct: also called FGFR3/Fc; FR3/Fc
T3 sequence (chain, as listed by the source limits assumed): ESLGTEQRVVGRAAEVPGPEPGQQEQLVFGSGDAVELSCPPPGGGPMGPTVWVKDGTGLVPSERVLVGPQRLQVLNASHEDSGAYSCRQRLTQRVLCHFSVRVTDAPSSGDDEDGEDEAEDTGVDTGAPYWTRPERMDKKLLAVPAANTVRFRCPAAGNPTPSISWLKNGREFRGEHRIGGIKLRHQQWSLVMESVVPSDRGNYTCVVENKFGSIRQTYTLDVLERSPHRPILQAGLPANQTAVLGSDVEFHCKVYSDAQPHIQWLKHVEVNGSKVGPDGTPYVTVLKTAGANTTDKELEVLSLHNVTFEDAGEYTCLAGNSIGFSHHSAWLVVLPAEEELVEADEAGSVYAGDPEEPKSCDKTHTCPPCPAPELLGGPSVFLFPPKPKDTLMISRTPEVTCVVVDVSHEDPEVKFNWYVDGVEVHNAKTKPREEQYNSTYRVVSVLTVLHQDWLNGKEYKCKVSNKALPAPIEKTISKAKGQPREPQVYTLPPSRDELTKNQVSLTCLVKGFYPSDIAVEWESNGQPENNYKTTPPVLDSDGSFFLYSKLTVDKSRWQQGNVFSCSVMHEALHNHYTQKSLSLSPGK

FR3exFc [4] = target: T3, FR3exFc; assay: BIAcore, Fab-dHLX-MH miniantibody; Fab-dHLX-MH miniantibody (dimer)
FR3exFc [5] = target: T3, FR3exFc; assay: BIACORE, FGFR3 captured on an anti-Fc chip
Method: (§1) The affinity measurements were performed by BIACORE® analysis according to the standard procedure recommended by the supplier (Pharmacia). The anti-Fc antibody was coupled via the EDC/NHS chemistry to the chip and subsequently FGFR3 was captured. The Fabs of the invention were then bound to this surface.

hFR3^D2Fc = target: T4, hFR3^D2Fc (human, UniProt P22607 143-250); assay: ELISA, Fc fusion anchored on an anti-human Fc coated plate, bound Fab detected with HRP anti-human Fab
T4 construct: Only domain 2 of the entry stood in the assay; also called product of pChFR3^D2Fc; not shown: human Fc
T4 sequence: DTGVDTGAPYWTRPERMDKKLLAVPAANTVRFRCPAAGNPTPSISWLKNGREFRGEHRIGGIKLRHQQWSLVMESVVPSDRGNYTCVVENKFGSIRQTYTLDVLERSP
Excerpt: Constructs comprising cDNAs that code for segments of the extracellular domain of FGFR3 were generated (FIG. 10). D2 comprises Ig domain 2, D2-3 comprises Ig domains 2 and 3, and D1-3 comprises Ig domains 1, 2 and 3. These constructs include pChFR3^D2Fc that codes for Ig-like domain 2 of FGFR3 and pChFR3^{D2,3}Fc that codes for domain 2 and 3, both as human Fc fusions. The corresponding chimeric proteins, as well as the control hFR3exFc (containing domains 1, 2 and 3) were anchored to an ELISA plate coated with a human Fc antibody. A panel of 8 best Fabs, MSPRO2, 11, 12, 21, 24, 26, 28 and 29, were added, and bound Fab was determined with HRP-α human Fab (FIG. 11). […] Both bind to the Ig like domain 2 while the others require domain 3 for binding. It was then tested whether or not Fabs that belong to the second group would distinguish the FGFR3IIIc isoform from the FGFRIIIb from. FDCP-FR3IIIb or FDCP-FR3IIIc cells were incubated in the presence of 1.25 ng/ml FGF9 with increasing doses of either MSPRO12 or MSPRO29. Ly6.3 was included as control. After 2 days in culture, cell proliferation was measured with the XTT reagent. Clearly, MSPRO29 (open triangle) was completely ineffective against the IIIb isoform (FIG. 12).

[6] = target: T2, FGFR3 (wild type) on cells; assay: FACS
[7] = target: T2, FGFR3 (wild type) on cells; assay: cell-based or functional assay; remark: listed apart in the source
FR3exFc [8] = target: T3, FR3exFc; assay: BIACORE, FGFR3 captured on an anti-Fc chip; remark: listed apart in the source
Method: as §1

FR3exFc [9] = target: T3, FR3exFc; assay: BIAcore; number in parentheses taken as the monomeric Fab; monomeric Fab, value in parentheses of Table 1E (Tables 1C and 5 give 9 nM)
[10] = target: T2, FGFR3 (wild type) on cells; assay: indirect FACS-Scatchard; indirect FACS-Scatchard, Table 5 (Table 1C gives 1.1 nM)
FR3exFc [11] = target: T3, FR3exFc; assay: BIACORE
Method: as §1

[12] = target: T2, FGFR3 (wild type) on cells; assay: cell-based or functional assay; remark: listed apart in the source
[13] = target: T2, FGFR3 (wild type) on cells; assay: indirect FACS-Scatchard
FR3exFc [14] = target: T3, FR3exFc; assay: BIAcore; number in parentheses taken as the monomeric Fab; monomeric Fab, not miniantibody
FR1exFc [15] = target: T1, FR1exFc; assay: Affinity to FGFR1 (BIACORE and/or FACS)
FR3exFc [16] = target: T3, FR3exFc; assay: ELISA, FGFR3/Fc anchored on anti-human Fc coated wells, about 5 µg Fab per well (labelled with cold iodine at 0.04 mM NaI), detection with anti-human Fab; parallel wells without FR3/Fc
Method: To determine the effect of iodination on Fab activity, 50 μg of MSPRO29 was first labeled with cold iodine using Pierce IodoGen coated tubes. The process was carried out either without iodine, with 0.04 mM NaI (low I) or with 1 mM NaI (high I). MSPRO29 was then purified through a SEPHADEX® G-50 column. The ability of the modified Fab to bind FGFR3 was determined by ELISA. MAXISORP® wells were coated with anti-human Fc. FGFR3/Fc was then anchored to the wells. In parallel, a similar set of wells was left in blocking buffer only (no FR3/Fc, hatched bars). The unmodified (no I) or the modified MSPRO29 (low or high, 2 G-50 fractions each, 1 and 2) were added at approximately 5 μg/well and binding was measured with anti-human Fab. Fresh MSPRO29 and buffer alone were included as controls (FIG. 14: FGFR3/Fc, checkered bars; no FGFR3/Fc, hatched bars). MS-PRO29 was labeled with 1 mCi ¹²⁵I. The specific activity of the Fab was 17 μCi/μg.

Kd (FR3exFc [4]): 2.2 nM
IC50, FDCP-FGFR3 proliferation assay with FGF9, dimeric dHLX format [2]: 20 nM
B2: MS-Pro-21-dHLX-MH (Fab, V domains shown)
VH: QVQLVQSGAEVKKPGSSVKVSCKASGGTFSSYAISWVRQAPGQGLEWMGGIIPIFGTANYAQKFQGRVTITADESTSTAYMELSSLRSEDTAVYYCARDNWFKPFSDVWGQGTLVTVSS
VL: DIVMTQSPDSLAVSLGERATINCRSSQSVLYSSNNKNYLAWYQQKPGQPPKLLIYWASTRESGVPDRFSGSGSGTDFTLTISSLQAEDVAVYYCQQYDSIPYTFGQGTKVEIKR
notes: Fab mini-antibody format Fab-dHLX-MH, a dimer of the Fab monomer; also called MSPRO21 dimeric dHLX format; Fab-dHLX

Kd (FR3exFc [4]): 4.3 nM
binding result (FR1exFc [1]): no binding
IC50, FDCP-FGFR3 proliferation assay with FGF9, dimeric dHLX format [2]: 61 nM
B4: MS-Pro-2-dHLX-MH (Fab, V domains shown)
VH: QVQLVQSGAEVKKPGASVKVSCKASGYTFTSYYMHWVRQAPGQGLEWMGWINPNSGGTNYAQKFQGRVTMTRDTSISTAYMELSSLRSEDTAVYYCARDFLGYEFDYWGQGTLVTVSS
VL: DIELTQPPSVSVAPGQTARISCSGDALGDKYASWYQQKPGQAPVLVIYDDSDRPSGIPERFSGSNSGNTATLTISGTQAEDEADYYCQSYDYSADYVFGGGTKLTVLG
notes: Fab mini-antibody format Fab-dHLX-MH, a dimer of the Fab monomer made as a fusion protein; also called MSPRO2 dimeric dHLX format; Fab-dHLX

Kd (FR3exFc [5]): 37 nM
IC50 of inhibition of FDCP-FR3 proliferation with FGF9 (XTT) [12]: ~1 µg/mL
Kd [6]: 43 nM
IC50 FR3 (FGF9), FDCP-FGFR3 proliferation assay [7]: 360 nM
Kd (FR3exFc [8]): 37 nM
Kd [13]: 43 nM
Kd (FR3exFc [14]): 37 nM
IC50, FDCP-FGFR3 proliferation assay with FGF9, monomeric Fab (in parentheses) [2]: 360 nM
koff (FR3exFc [11]): 0.02 s⁻¹
B5: MSPRO2 (Fab, V domains shown)
VH: B4 VH
VL: B4 VL

Second part, the binder before the results:

B1: MS-Pro-12-dHLX-MH (Fab, V domains shown)
VH: QVQLKESGPALVKPTQTLTLTCTFSGFSLSTSGVGVGWIRQPPGKALEWLALIDWDDDKYYSTSLKTRLTISKDTSKNQVVLTMTNMDPVDTATYYCARYHSWYEMGYYGSTVGYMFDYWGQGTLVTVSS
VL: DIELTQPPSVSVAPGQTARISCSGDALGDKYASWYQQKPGQAPVLVIYDDSDRPSGIPERFSGSNSGNTATLTISGTQAEDEADYYCQSYDFDFAVFGGGTKLTVLG
notes: Fab mini-antibody format Fab-dHLX-MH, a dimer of the Fab monomer; also called MSPRO12 dimeric dHLX format; Fab-dHLX
binding result (FR1exFc [1]): no binding
IC50, FDCP-FGFR3 proliferation assay with FGF9, dimeric dHLX format [2]: 26 nM
Kd (FR3exFc [3]): 1.2 nM

B3: MSPRO21 (Fab, V domains shown)
VH: B2 VH
VL: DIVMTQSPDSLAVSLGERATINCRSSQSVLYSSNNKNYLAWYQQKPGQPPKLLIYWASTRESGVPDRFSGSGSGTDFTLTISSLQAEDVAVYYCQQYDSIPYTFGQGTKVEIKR
Kd (FR3exFc [5]): 9 nM
binding result (hFR3^D2Fc): no binding
Kd [6]: 1.1 nM
IC50 FR3 (FGF9), FDCP-FGFR3 proliferation assay [7]: 50 nM
Kd (FR3exFc [8]): 9 nM
Kd (FR3exFc [9]): 4.1 nM
Kd [10]: 0.6 nM
IC50, FDCP-FGFR3 proliferation assay with FGF9, monomeric Fab (in parentheses) [2]: 50 nM
koff (FR3exFc [11]): 0.0036 s⁻¹

B6: MSPRO29 (Fab, V domains shown)
VH: QVQLVQSGAEVKKPGASVKVSCKASGYTFTSYYMHWVRQAPGQGLEWMGWINPNSGGTNYAQKFQGRVTMTRDTSISTAYMELSSLRSEDTAVYYCARTWQYSYFYYLDGGYYFDIWGQGTLVTVSS
VL: DIVLTQSPATLSLSPGERATLSCRASQSVSSSYLAWYQQKPGQAPRLLIYGASSRATGVPARFSGSGSGTDFTLTISSLEPEDFATYYCQQTNNAPVTFGQGTKVEIKR
Kd (FR3exFc [5]): 6 nM
amount of Fab that inhibits FGFR3 activation (JNK signaling) in RCJ-FR3 cells [12]: < 5 µg
binding result (hFR3^D2Fc): no binding
Kd [6]: < 1 nM
IC50 FR3 (FGF9), FDCP-FGFR3 proliferation assay [7]: 20 nM
Kd (FR3exFc [8]): 6 nM
Kd (FR1exFc [15]): 29 nM
Kd [13]: 0.4 nM
koff (FR3exFc [11]): 0.0014 s⁻¹

B7: iodinated MSPRO29 (Fab, V domains shown)
VH: B6 VH
VL: B6 VL
modifications: iodinated with IodoGen (cold NaI at 0.04 mM or 1 mM, or 125I); sites not stated
notes: MSPRO29 Fab after iodination; which preparation (low I, high I, 125I) is told in each row; also called modified MSPRO29 (low I; high I)
binding result (FR3exFc [16]): binds
